# Results as given in patent US8143025B2, “Antibodies against vascular endothelial growth factor receptor-1” (ImClone LLC, priority 2004, dated 2012).
# “Also recorded” adds a separate entry of the source.
# Columns and labels:
# [1] = molecular target: T1, native VEGFR-I on PAE-VEGFR-I cells (Homo sapiens, UniProt P17948); assay: Flow cytometry analysis, PAE-VEGFR-I cells; format: binding; conditions: FIG. 7
# T1 construct: host or cells: porcine aorta endothelial (PAE) cells
# Protocol: Aliquots of 10^6PAE-VEGFR-I cells were harvested from subconfluent cultures and incubated with anti-VEGFR-I antibody clones 6F9, 13G12, F11, and 18F1 in PBS with 1% bovine serum albumin (BSA) and 0.02% sodium azide (staining buffer) for one hour on ice. Aliquots of 10^6DU4475 human breast carcinoma cells were harvested from subconfluent cultures and incubated with anti-VEGFR-1 antibody clone 18F1 in PBS with 1% bovine serum albumin (BSA) and 0.02% sodium azide (staining buffer) for one hour on ice. A matched IgG isotype (Jackson ImmunoResearch, West Grove, Pa.) was used as a negative control. Cells were washed twice with flow buffer and then incubated with a fluorescein isothiocyanate (FITC)-labeled goat anti-human IgG antibody (BioSource International, Camarillo, Calif.) in staining buffer for 30 minutes on ice. Cells were washed as above and analyzed on an Epics XL flow cytometer (Beckman-Coulter, Hialeah, Fla.). Dead cells and debris were eliminated from the analysis on the basis of forward and sideways light scatter. The mean fluorescent intensity units (MFRJ) were calculated as the mean log fluorescence multiplied by the percentage of positive population.
# SW480 cells = assay: Invasion through MATRIGEL coated membrane; format: cell-based, human; conditions: 66 nM antibody, 10 ng/mL VEGF-A or 50 ng/mL VEGF-B, 48 hours, p<0.05, FIG. 24
# Protocol: HT-29 cells (2.5×1 10^4) or SW480 cells (1.5×1 10^4) were incubated in medium containing 1% FBS with the anti-VEGFR-1 antibody 18F1 ([…]) 8.0-μm pore size membrane insert (Becton Dickinson Labware, Bedford, Mass.). The inserts were placed into lower chambers containing 10 ng/mL VEGF-A (R&D Systems) or 50 ng/mL VEGF-B (R&D Systems) for 48 hours. Cells remaining in the top chamber of the inserts were removed with a cotton swab. Cells migrating to the underside of the inserts were stained with Diff-Quik (Harleco, Gibbstown, N.J.) and counted in ten random fields at 100× magnification. Statistical analysis was performed using InStat Statistical Software (V2.03, GraphPad Software, San Diego, Calif.).
# VEGFR-I = VEGFR-I (Homo sapiens, UniProt P17948); assay: VEGFR-I phosphorylation assay, BT474 cells; format: cell-based; design: endogenous in cells; host or cells: BT474 human breast carcinoma cells; conditions: BT474 breast cancer cells, compared to untreated control, FIG. 11
# Protocol: Confluent porcine aorta endothelial VEGFR-I expressing (PAE-VEGFR-I) cells and BT474 human breast carcinoma cells were cultured in serum-depleted F12 medium for 48 hours. The cells were then preincubated with anti-VEGFR-I antibody clone 18F1 at concentrations ranging from 0.1 to 30 μg/ml for 1 hour followed by stimulating with VEGF or PlGF for 5 minutes at 37° C. The cells were then rinsed with ice-cold PBS and lysed in lysis buffer (50 mM HEPES, 150 mM NaCl, 1% Triton X-100, and 10% glycerol containing 1 mM phenylmethylsulfonyl fluoride, 10 μg/ml aprotinin, 10 μg/ml leupeptin, and 1 mM sodium vanadate). Cell lysates were subjected to SDS-PAGE and transferred onto Immobilon membranes (Millipore Corp. Billerica, Mass.). […]
# Autophosphorylation of the VEGFR-I induced by its ligands and resulting activation of a classical MAPK, extracellular signal-regulated protein kinases 1Z2 (ERK1Z2) and the PBK/Atk downstrean signaling pathways mediate cellular biological responses such as proliferation, motility, survival, and differentiation. The ability of an anti-VEGFR-1 antibody to inhibit phosphorylation of VEGFR-I and activation of ERK1 Z2 and the Akt kinases downstream signaling were determined by using the PAE-VEGFR-I transfectant and BT474 breast carcinoma cells. […]
# Sequence of VEGFR-I (P17948 27-1338): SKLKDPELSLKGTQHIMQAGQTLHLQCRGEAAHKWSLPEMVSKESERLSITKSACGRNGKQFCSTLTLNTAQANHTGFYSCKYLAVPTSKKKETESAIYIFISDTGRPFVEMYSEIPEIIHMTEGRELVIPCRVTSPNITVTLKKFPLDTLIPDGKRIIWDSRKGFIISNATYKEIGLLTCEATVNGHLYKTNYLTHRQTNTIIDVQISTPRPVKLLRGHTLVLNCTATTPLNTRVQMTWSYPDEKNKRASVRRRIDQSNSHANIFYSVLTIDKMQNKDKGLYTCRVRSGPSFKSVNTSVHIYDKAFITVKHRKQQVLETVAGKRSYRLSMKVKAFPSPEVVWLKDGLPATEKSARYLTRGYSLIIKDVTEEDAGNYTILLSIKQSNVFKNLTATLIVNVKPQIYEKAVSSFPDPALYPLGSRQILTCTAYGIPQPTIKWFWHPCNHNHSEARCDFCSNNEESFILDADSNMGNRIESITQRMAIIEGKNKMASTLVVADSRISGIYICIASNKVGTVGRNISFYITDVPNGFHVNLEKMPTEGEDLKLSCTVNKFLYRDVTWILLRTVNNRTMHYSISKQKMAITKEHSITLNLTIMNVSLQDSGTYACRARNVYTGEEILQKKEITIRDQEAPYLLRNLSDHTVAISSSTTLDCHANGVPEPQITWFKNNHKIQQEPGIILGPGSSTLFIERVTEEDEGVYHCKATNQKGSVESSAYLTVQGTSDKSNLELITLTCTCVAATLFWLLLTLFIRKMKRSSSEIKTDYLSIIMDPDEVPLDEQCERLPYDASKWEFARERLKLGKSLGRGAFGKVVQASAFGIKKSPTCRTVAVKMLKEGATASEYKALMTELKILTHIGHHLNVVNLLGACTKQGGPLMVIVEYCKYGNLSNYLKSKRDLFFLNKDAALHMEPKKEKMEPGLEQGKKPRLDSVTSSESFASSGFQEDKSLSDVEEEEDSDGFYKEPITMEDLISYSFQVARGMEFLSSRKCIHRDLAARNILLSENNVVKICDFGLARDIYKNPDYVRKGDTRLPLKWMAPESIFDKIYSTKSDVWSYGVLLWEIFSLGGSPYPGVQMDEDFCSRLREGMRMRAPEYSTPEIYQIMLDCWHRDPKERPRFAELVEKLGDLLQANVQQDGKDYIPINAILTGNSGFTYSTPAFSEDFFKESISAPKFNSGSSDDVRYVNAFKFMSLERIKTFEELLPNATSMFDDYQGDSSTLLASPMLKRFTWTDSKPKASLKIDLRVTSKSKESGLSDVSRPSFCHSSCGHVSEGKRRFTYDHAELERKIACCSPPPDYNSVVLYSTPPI
# T1 sequence (P17948 27-1338): as above
substance,measurement,setting,value
"18F1: human anti-VEGFR-1 monoclonal antibody clone; VL SEQ ID NO: 16, VH SEQ ID NO: 20 [Clone 18F1]",binding reactivity with PAE-VEGFR-I expressing cells,[1],binding reactivity
same,VEGFR-I ligand induced invasion,SW480 cells,completely blocked
same,PlGF or VEGF-stimulated phosphorylation of VEGFR-I,VEGFR-I,significantly reduced; also recorded: inhibition
